Biological target: FLAG-tagged vasodilator-stimulated phosphoprotein (FLAG-VASP), wildtype (human) (UniProt P50552)
Assay: proximity ligation; 293T cells co-expressing p8-HA and FLAG-VASP or FLAG-N-WASP, fixed with 2% PFA; mouse anti-FLAG and rabbit anti-HA, Duolink In Situ Red kit; dots per positive cell counted

Chain of UniProt P50552 (P50552 whole entry): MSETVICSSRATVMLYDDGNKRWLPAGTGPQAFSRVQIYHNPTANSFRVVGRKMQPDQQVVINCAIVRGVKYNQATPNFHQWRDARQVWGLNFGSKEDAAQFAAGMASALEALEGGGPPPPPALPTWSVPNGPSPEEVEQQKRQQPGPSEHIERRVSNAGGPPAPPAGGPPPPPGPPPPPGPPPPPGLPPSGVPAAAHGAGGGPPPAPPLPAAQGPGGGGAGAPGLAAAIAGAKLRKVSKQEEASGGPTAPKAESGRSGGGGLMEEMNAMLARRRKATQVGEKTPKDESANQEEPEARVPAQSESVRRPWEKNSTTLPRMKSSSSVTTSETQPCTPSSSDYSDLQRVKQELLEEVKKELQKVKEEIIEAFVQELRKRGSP

**Q.** For “HTLV-1 p8 protein, HA-tagged (p8-HA) (natural protein)”, which PLA spots per cell (spots per cell) is on record?
**A.** Its PLA spots per cell (spots per cell) is 7.
